According to patent publication US20220298237A1 (KEIO UNIVERSITY, published 2022):

Experiments:
[1] = molecular target: T1, mouse AQP3 in lysate of HEK293T cells overexpressing mouse AQP3 and a myc-biotinylated tag (mouse, UniProt Q8R2N1 1-292); test: ELISA on lysate of HEK293T cells overexpressing mouse AQP3 (FIG. 3)
T1 construct: Cell lysate used in ELISA; also called AQP3 containing cell lysate; not shown: myc-biotinylated tag
T1 sequence (looked up): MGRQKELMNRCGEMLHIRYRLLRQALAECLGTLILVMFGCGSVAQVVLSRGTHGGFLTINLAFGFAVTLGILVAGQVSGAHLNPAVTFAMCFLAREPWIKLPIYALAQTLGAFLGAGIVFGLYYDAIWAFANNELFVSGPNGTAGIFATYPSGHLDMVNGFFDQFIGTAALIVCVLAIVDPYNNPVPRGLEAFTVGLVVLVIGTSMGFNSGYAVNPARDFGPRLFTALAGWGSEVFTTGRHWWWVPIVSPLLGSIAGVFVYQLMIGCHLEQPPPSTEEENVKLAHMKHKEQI
Text: Cell lysate from HEK293T cells overexpressing mouse AQP3 and a myc-biotinylated tag was used in an ELISA assay to measure the binding of antibodies A, B, C, D, E, F, G, H, J, and K to AQP3. Cell lysate from HEK293T cells overexpressing the myc-biotinylated tag but not AQP3 was used as control. […] C. Antibody binding to AQP3 expressing cells

[2] = molecular target: T2, mouse aquaporin 3 (AQP3) on cells (mouse, UniProt Q8R2N1 1-292); test: fluorescence binding assay on mouse macrophage cells, 0.1, 1 and 10 µg/mL (FIG. 4)
T2 construct: whole, on cells; Water channel membrane protein; also called mouse AQP3; AQP3 on PAM212 cells
T2 sequence (looked up): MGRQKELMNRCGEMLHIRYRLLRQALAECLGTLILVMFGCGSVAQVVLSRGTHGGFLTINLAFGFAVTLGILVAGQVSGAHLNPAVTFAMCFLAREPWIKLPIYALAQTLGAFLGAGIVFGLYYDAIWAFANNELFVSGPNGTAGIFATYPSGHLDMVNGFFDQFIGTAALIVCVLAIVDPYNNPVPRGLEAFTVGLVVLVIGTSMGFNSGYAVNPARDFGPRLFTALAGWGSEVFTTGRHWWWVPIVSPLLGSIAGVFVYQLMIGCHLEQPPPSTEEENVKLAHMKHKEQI
Experimental: (§1) PAM212 and macrophage cells were reacted with each anti AQP3 antibody (0.1, 1, or 10 μg/mL) at 4° C. for 1 hour. After washing the cells, a fluorescent-labeled secondary antibody was added and the reaction was allowed to occur additionally for 1 hour (4° C.). By measuring the fluorescence intensity, the binding property of each anti AQP3 antibody to cells was obtained.
The testing was also carried out using solvent (Veh) or a non-specific IgG (IgG) controls. In FIG. 4, the vertical axis represents fluorescence intensity, and the mean fluorescence intensity of each sample is represented by bar height together with standard error.

[3] = molecular target: T3, human aquaporin 3 (AQP3) on cells (human, UniProt Q92482 1-292); test: fluorescence binding assay on HaCaT cells, 10 µg/mL (FIG. 5C)
T3 construct: whole, on cells; Water channel membrane protein; also called human AQP3; AQP3 on HaCaT cells
T3 sequence (looked up): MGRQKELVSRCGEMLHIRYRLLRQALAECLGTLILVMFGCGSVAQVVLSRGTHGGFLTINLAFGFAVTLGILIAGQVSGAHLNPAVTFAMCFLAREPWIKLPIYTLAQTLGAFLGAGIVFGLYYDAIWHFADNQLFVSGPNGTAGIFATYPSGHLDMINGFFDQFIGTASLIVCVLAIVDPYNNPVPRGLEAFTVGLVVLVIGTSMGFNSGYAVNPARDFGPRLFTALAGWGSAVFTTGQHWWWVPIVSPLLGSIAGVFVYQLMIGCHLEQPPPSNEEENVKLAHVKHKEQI

[4] = molecular target: T4, oligopeptide ATYPSGHLDM (SEQ ID NO: 1) (human and mouse); test: ELISA on peptide SEQ ID NO:1, IgG, 50% binding response (FIG. 16A)
T4 construct: Synthetic peptide; positions 148 to 157 of the human AQP3 polypeptide, identical in mouse; also called peptide used for immunization; oligopeptide 5
T4 peptide: ATYPSGHLDM

[5] = molecular target: T5, oligopeptide PSGHLDM (SEQ ID NO: 98); test: ELISA on coated peptide
T5 construct: Synthetic peptide, part of Loop C of AQP3
T5 peptide: PSGHLDM
Experimental: (§2) To determine the important amino acid residues of an epitope in Loop C involved in binding to specific AQP3 antibody clones, peptides of varying lengths were produced. The sequences of these peptides are shown in column 2 of Table 4.
(§3) The various peptides and AQP3 antibody clones were subjected to ELISA binding analyses. […] The microtiter wells (Costar 2690) were coated with 50 μL of each peptide at 4° C. overnight. The wells were washed 3 times with PBS and blocked with 100 μL of 1% BSA/PBS at 37° C. for 1 hour. Each antibody was adjusted to 1 μg/mL in 1% SBA/PBS as above then serially diluted 1:5 in 1% BSA/PBS. The blocker was discarded and the wells were incubated with 50 μL of antibodies at 37° C. for 1.5 hours. The wells were washed 3 times with PBS and mouse antibodies were detected with 50 μL of goat anti-mouse IgG (H+L) HRP conjugate (ThermoFisher 31438) (1:5,000 in 1% BSA/PBS) and rabbit antibodies were detected with 50 μL of goat anti-rabbit IgG (H+L) HRP conjugate (ThermoFisher 31462) (1:5,000 in 1% BSA/PBS) at 37° C. for 1 hour. The wells were washed 3 times with PBS and developed with 50 μL of HRP substrate at RT for 5 min then stopped with 50 μL of 2N sulfuric acid and binding was measured with a plate reader.

[6] = molecular target: T6, oligopeptide ATYPSGHLD (SEQ ID NO: 101); test: ELISA on coated peptide
T6 construct: Synthetic peptide, part of Loop C of AQP3
T6 peptide: ATYPSGHLD
Experimental: as §2, §3

[7] = molecular target: T7, oligopeptide ATYPSGH (SEQ ID NO: 103); test: ELISA on coated peptide
T7 construct: Synthetic peptide, part of Loop C of AQP3
T7 peptide: ATYPSGH
Experimental: as §2, §3

[8] = molecular target: T8, oligopeptide ATYPSG (SEQ ID NO: 104); test: ELISA on coated peptide
T8 construct: Synthetic peptide, part of Loop C of AQP3
T8 peptide: ATYPSG
Experimental: as §2, §3

[9] = molecular target: T9, oligopeptide YPSGHLDM (SEQ ID NO: 97); test: ELISA on coated peptide
T9 construct: Synthetic peptide, part of Loop C of AQP3; first diluted in DMSO
T9 peptide: YPSGHLDM
Experimental: as §2, §3

[10] = molecular target: T10, oligopeptide FATYPSGHLDM (SEQ ID NO: 109); test: ELISA on coated peptide
T10 construct: Synthetic peptide, part of Loop C of AQP3
T10 peptide: FATYPSGHLDM
Experimental: as §2, §3

[11] = molecular target: T11, oligopeptide GHLDM (SEQ ID NO: 100); test: ELISA on coated peptide
T11 construct: Synthetic peptide, part of Loop C of AQP3
T11 peptide: GHLDM
Experimental: as §2, §3

[12] = molecular target: T12, oligopeptide SGHLDM (SEQ ID NO: 99); test: ELISA on coated peptide
T12 construct: Synthetic peptide, part of Loop C of AQP3
T12 peptide: SGHLDM
Experimental: as §2, §3

[13] = molecular target: T13, oligopeptide TAGIFATYPSGHLDM (SEQ ID NO: 105); test: ELISA on coated peptide
T13 construct: Synthetic peptide, part of Loop C of AQP3
T13 peptide: TAGIFATYPSGHLDM
Experimental: as §2, §3

[14] = molecular target: T14, oligopeptide SGPNGTAGIFATYPS (SEQ ID NO: 94); test: ELISA on coated peptide
T14 construct: Synthetic peptide, part of Loop C of AQP3
T14 peptide: SGPNGTAGIFATYPS
Experimental: as §2, §3

[15] = molecular target: T15, oligopeptide ATYPSGHL (SEQ ID NO: 102); test: ELISA on coated peptide
T15 construct: Synthetic peptide, part of Loop C of AQP3
T15 peptide: ATYPSGHL
Experimental: as §2, §3

[16] = molecular target: T16, oligopeptide GIFATYPSGHLDM (SEQ ID NO: 107); test: ELISA on coated peptide
T16 construct: Synthetic peptide, part of Loop C of AQP3
T16 peptide: GIFATYPSGHLDM
Experimental: as §2, §3

[17] = molecular target: T17, oligopeptide TYPSGHLDM (SEQ ID NO: 96); test: ELISA on coated peptide
T17 construct: Synthetic peptide, part of Loop C of AQP3
T17 peptide: TYPSGHLDM
Experimental: as §2, §3

[18] = molecular target: T18, oligopeptide IFATYPSGHLDM (SEQ ID NO: 108); test: ELISA on coated peptide
T18 construct: Synthetic peptide, part of Loop C of AQP3
T18 peptide: IFATYPSGHLDM
Experimental: as §2, §3

[19] = molecular target: T19, oligopeptide AGIFATYPSGHLDM (SEQ ID NO: 106); test: ELISA on coated peptide
T19 construct: Synthetic peptide, part of Loop C of AQP3
T19 peptide: AGIFATYPSGHLDM
Experimental: as §2, §3

[20] = molecular target: T4, oligopeptide ATYPSGHLDM (SEQ ID NO: 1); test: ELISA on coated peptide
Experimental: as §2, §3

[21] = molecular target: T2, mouse aquaporin 3 (AQP3) on cells; test: FACS on HEK293 cells stably overexpressing mouse AQP3, 10 µg/mL
Experimental: A FACS assay was also performed using HEK293 cells stably overexpressing mouse AQP3. Cells were incubated with antibody E, H, J, or negative control IgG at a concentration of 10 μg/mL for one hour and then sorted by FACS. Separately, HEK293 cells stably overexpressing human AQP3 were incubated with antibody E at a concentration of 10 μg/mL for one hour and then sorted by FACS.

[22] = molecular target: T4, oligopeptide ATYPSGHLDM (SEQ ID NO: 1); test: ELISA on the immunogen peptide (FIG. 2)
[23] = molecular target: T2, mouse aquaporin 3 (AQP3) on cells; test: fluorescence binding assay on PAM212 cells, 10 µg/mL (FIG. 5B)
Experimental: as §1
The assay was also performed using PAM212 cells and antibodies A, B, C, D, E, F, G, H, and J at a concentration of 10 μg/mL. Binding of antibodies C, D, E, G, and J to PAM212 cells was statistically significant.

[24] = molecular target: T3, human aquaporin 3 (AQP3) on cells; test: flow cytometry on HaCaT cells, 10 µg/mL (FIG. 6A)
Experimental: HaCaT cells were treated with Cell Dissociation Buffer for 30 minutes at 37° C., and then dislodged and collected. Then, the cells were reacted with 10 μg/mL anti AQP3 antibody at 4° C. for 1 hour. After washing the cells, a fluorescent-labeled secondary antibody was added and the reaction was allowed to occur additionally for 1 hour (4° C.). Then, by using a flow cytometer, fluorescence intensity was measured (FIG. 6A to FIG. 6C). FIG. 6A represents the result of a case in which antibody G was used, FIG. 6B represents the result of a case in which antibody H was used, and FIG. 6C represents the result of a case in which antibody J was used. […] The histogram expressed with bold line represents a case in which the anti AQP3 antibody was used while the histogram expressed with thin dotted line represents a case as a control in which the anti AQP3 antibody was not used (addition of non-specific IgG). […] Ratio (%) of the cells included in this range (=cells showing positive staining by anti AQP3 antibody) is also shown in the drawing.

B1: Antibody J (antibody, mouse IgG2a, kappa, V domains shown)
VH: QVHLQQSGTELVKPGASVKLSCEASGYTFTSYWMHWVKQRPGQGLEWIGNINPSNGGTNYNEKFKSKATLTVDKSSSTAYMQLSSLTSEDSAVYYCARGGIYYGNYDYYAMDYWGQGTSVTVSS
VL: DIVMTQAAPSVPVTPGESVSISCRSSKSLLHSNGNTYLYWFLQRPGQSPQLLIYRVSNLASGVPDRFSGSGSGTAFTLRISRVEAEDVGVYYCMQHLEYPFTFGGGTKLEIKR
notes: also called anti AQP3 antibody J
[1]
  binding result: binds
[2]
  binding result: binds
[3]
  binding result: binds
[4]
  EC50: > 1 µg/mL
[5]
  binding signal (plate reader): 0.095
[6]
  binding signal (plate reader): 0.671
[7]
  binding signal (plate reader): 0.045
[8]
  binding signal (plate reader): 0.044
[9]
  binding signal (plate reader): 0.086
[10]
  binding signal (plate reader): 0.513
[11]
  binding signal (plate reader): 0.043
[12]
  binding signal (plate reader): 0.041
[13]
  binding signal (plate reader): 0.723
[14]
  binding signal (plate reader): 0.043
[15]
  binding signal (plate reader): 0.044
[16]
  binding signal (plate reader): 0.523
[17]
  binding signal (plate reader): 0.26
[18]
  binding signal (plate reader): 0.594
[19]
  binding signal (plate reader): 0.744
[20]
  binding signal (plate reader): 0.391

B2: Antibody H (antibody, mouse IgG2a, kappa, V domains shown)
VH: EVKLVESGGDLVKPGGSLKLSCAASGFTFSSYGMSWVRQTPDKRLEWVATISRRSIYTYYPDSVQGRFTISRDNAKNTLYLQMSSLKSEDTAMYYCARLSLYDYDGARYTMDYWGQGTSVTVSS
VL: DIKMTQSPKFMSTSVGDRVSITCKASQDVGTAVAWYQQKPGQSPKLLIYWASTRHTGVPDRFTGSGSGTDFTLTISNVQSEDLADYFCQQYSSYHTFGAGTKLEIKR
notes: also called anti AQP3 antibody H
[21]
  binding result: binds
[1]
  binding result: binds
[3]
  binding result: binds
[22]
  binding result: binds

B3: Antibody G (antibody, mouse IgG2a, kappa, V domains shown)
VH: QVQLKQSGAELVRPGASVTLSCKASGYTFTDYEMHWVKQTPVHGLEWIGGIDPETGGTAYNQKFKGKAILTADKSSSTAYMELRSLTSEDSAVYYCTRWGAITSFVALRGFAYWGQGTLVTVSS
VL: DIQMTQSPSSLSVSAGEKVTMSCKSSQSLLNSGNQKNYLAWYQQKPGQPPKLLIYGASTRESGVPDRFTGSGSGTDFTLTISSVQAEDLAVYYCQNDHSYPPTFGAGTKLELKR
notes: also called anti AQP3 antibody G; Antiboy G
[1]
  binding result: binds
[23]
  binding result: binds
[24]
  binding result: binds
[22]
  binding result: binds
